Numbering of substitutions follows the chain as printed. Names and notes keep the numbering of the source. “Also recorded” adds a separate entry of the source.
Tested on: carboxylation of FIXgla-PC reporter protein in HEK293 cells (reduction of KO to vitamin K)
Test: Cell-based VKOR activity assay: recombinant VKOR/VKORH expressed in FIXgla-PC/HEK293 cells with KO and warfarin, carboxylated reporter by ELISA
Set-up: species or system human
Details: for ability to promote carboxylation of the reporter protein compared to recombinant human VKOR: FIXgla-PC HEK293 (FIGS. 9, 10); for Relative activity: Human Y139F: VKOR of the organism compared to human Y139F VKOR, cell-based carboxylation; for ability of human VKOR with replaced residues 122-139 to use KO to carboxylate the reporter: 48 h, HEK293 (FIG. 11C); for carboxylation of reporter protein by human VKOR cysteine mutants: Y139F background, HEK293 (FIG. 13); for activity in the in vivo assay: cysteine mutants of VKOR-Y139F, 4 μM warfarin (FIGS. 17A-B); for amount of carboxylated reporter protein with mutated recombinant human VKOR: FIG. 12, compared to human VKOR Y139F; for sensitivity to warfarin: warfarin level used in these assays

Molecule: VKOR: human vitamin K epoxide reductase, AAS01052, SEQ ID NO:5
- activity in cell-based in vivo activity assays: active in the vitamin K cycle

B1: Hamster: Syrian golden hamster (AV12) VKOR, SEQ ID NO:3, Y139F warfarin resistant (protein, listed as Cricetulus griseus)
chain: MGTTWRSPGRWRLALCLAGLALSLYALHVKAARARDEDYRALCDVGSAISCSRVFSSRWGKGLGLVEHVLGPDSVLNQNSIFGCIFYTIQLLLGCLRGRWAFLLLVLSSLVSFAGSVYLAWILFFVLYDFCIVCITTYVINVGLMLLNFQDVPEHKAKRH
- ability to promote carboxylation of the reporter protein compared to recombinant human VKOR (5 μM KO, 2 μM warfarin): undiminished ability
- Relative activity: Human Y139F: Yes, greater

B2: hVKOR Synechococcus: human VKOR with residues 122-139 replaced by Synechococcus VKOR 120-137, SEQ ID NO:31 (protein)
chain: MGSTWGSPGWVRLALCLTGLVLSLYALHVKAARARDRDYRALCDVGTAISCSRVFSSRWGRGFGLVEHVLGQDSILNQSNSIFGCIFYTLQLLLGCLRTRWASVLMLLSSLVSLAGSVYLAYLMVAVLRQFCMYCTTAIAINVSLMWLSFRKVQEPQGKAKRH
modifications: Human VKOR with amino acids 122-139 substituted with amino acids 120-137 of Synechococcus sp. JA-2-3B′a(2-13) VKOR (RefSeq accession no. YP_478481)
- ability of human VKOR with replaced residues 122-139 to use KO to carboxylate the reporter (5 μM KO, 2 μM warfarin): only the human VKOR substituted with the M. tuberculosis domain functions as a VKOR

B3: C51A/Y139F: human VKOR with C51A and Y139F mutations (protein)
chain: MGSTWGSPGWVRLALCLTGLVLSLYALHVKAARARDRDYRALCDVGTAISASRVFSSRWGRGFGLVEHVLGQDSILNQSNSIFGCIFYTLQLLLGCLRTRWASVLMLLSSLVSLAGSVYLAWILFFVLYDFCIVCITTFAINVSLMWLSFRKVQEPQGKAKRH
modifications: Human VKOR with C51A mutation
notes: human VKOR with C51A and Y139F mutations
- ability to promote carboxylation of the reporter protein compared to recombinant human VKOR (5 μM KO, 2 μM warfarin): greater activity
- carboxylation of reporter protein by human VKOR cysteine mutants (4 μM warfarin): greater activity than VKORY139F
- activity relative to human VKOR (Y139F) (both human forms carry Y139F, 5 μM KO, 2 μM warfarin): about 2 fold

B4: 5C-Mut: VKOR-Y139F with C16A, C43A, C51A, C85A and C96A simultaneously (protein, UniProt Q9BQB6 1-163, looked up, variant Y139F C16A C43A C51A C85A C96A)
Vitamin K epoxide reductase …: B3 chain with C16A, C43A, C85A, C96A
- carboxylation of reporter protein by human VKOR cysteine mutants (4 μM warfarin): indistinguishable from VKORY139F
- activity in the in vivo assay (5 μM KO): ~40%

B5: Y139W: human VKOR with tyrosine 139 mutated to tryptophan (protein, UniProt Q9BQB6 1-163, looked up, variant Y139W)
Vitamin K epoxide reductase …: B3 chain with A51C, F139W
- amount of carboxylated reporter protein with mutated recombinant human VKOR: further reduction

B6: Y139W_IV133PY: human VKOR with residue 139 changed to W and IV at 133-134 changed to PY (protein, UniProt Q9BQB6 1-163, looked up, variant Y139W I133P V134Y)
Vitamin K epoxide reductase …: B3 chain with A51C, I133P, V134Y, F139W
- amount of carboxylated reporter protein with mutated recombinant human VKOR: does not restore activity

B7: VKOR-CM: human VKOR with R37G, R35G, R33G, K30L, G9R, S7R and G6R mutations, SEQ ID NO:35 (protein)
chain: B3 chain with G6R, S7R, G9R, K30L, R33G, R35G, R37G, A51C, F139Y
modifications: Human VKOR comprising an R37G mutation, an R35G mutation, an R33G mutation, a K30L mutation, a G9R mutation, an S7R mutation and a G6R mutation
- ability to carboxylate vitamin K dependent reporter protein relative to wild type / control VKOR (charge-mutated human VKOR (FIG. 32)): approximately fourfold; also recorded: about four times more active

B8: C43/51A: VKOR-Y139F with double mutation C43A and C51A (protein, UniProt Q9BQB6 1-163, looked up, variant Y139F C43A C51A)
Vitamin K epoxide reductase …: B3 chain with C43A
- carboxylation of reporter protein by human VKOR cysteine mutants (4 μM warfarin): restores normal (VKORY139F) activity
- activity in the in vivo assay (5 μM KO): ~60%

B9: C43-51-DEL: VKOR-Y139F with deletion of C43, C51 and the residues between them (protein, UniProt Q9BQB6 1-163, looked up, variant Y139F del43-51)
Vitamin K epoxide reductase …: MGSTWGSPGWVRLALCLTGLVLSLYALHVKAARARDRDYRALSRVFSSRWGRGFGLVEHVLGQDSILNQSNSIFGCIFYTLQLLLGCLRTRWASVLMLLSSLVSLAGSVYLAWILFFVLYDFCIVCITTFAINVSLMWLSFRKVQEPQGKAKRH
- activity in the in vivo assay (5 μM KO): ~60%

B10: Nematostella: VKOR from Nematostella rendered warfarin resistant by Y135F mutation, SEQ ID NO:10 (protein, listed as Nematostella vectensis)
chain: MDKLGGFRMMLCVAGVFLSAYALNVEVSKSNNKDYRAICDISEKISCSKVFSSKYGTGFGLVEPIFGKDSTLNVPNSIFGIMFYTMVFLLGFSRSKLAAQLSVFSAVLSCLGSVYLGCILYFVLQDVCIICISTYVVNACLLVVNSLSLVNLQERTKRKQK
- ability to promote carboxylation of the reporter protein compared to recombinant human VKOR (5 μM KO, 2 μM warfarin): consistently better; also recorded: considerably more active
- ability to promote carboxylation of the reporter protein compared to recombinant human VKOR (5 μM KO, 2 μM warfarin, listed as Nematostella Y135F): greater ability to stimulate carboxylation
- Relative activity: Human Y139F: Yes, greater

B11: hVKOR Roseiflexus: human VKOR with residues 122-139 replaced by Roseiflexus VKOR 300-317, SEQ ID NO:33 (protein)
chain: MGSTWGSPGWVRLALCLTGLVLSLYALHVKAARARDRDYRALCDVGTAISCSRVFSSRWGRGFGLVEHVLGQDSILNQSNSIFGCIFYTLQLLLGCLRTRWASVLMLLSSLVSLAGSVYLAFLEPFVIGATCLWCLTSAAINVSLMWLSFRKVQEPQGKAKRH
modifications: Human VKOR with amino acids 122-139 substituted with amino acids 300-317 of Roseiflexus sp. RS-1 VKOR (RefSeq accession no. YP_001274867)
- ability of human VKOR with replaced residues 122-139 to use KO to carboxylate the reporter (5 μM KO, 2 μM warfarin): only the human VKOR substituted with the M. tuberculosis domain functions as a VKOR

B12: Platypus: duck-billed platypus VKOR, SEQ ID NO:16, lacks cysteines corresponding to 43 and 51 (protein, listed as Ornithorhynchus anatinus)
chain: MGAWVPTRSARVVGPRALGSRVATAVQPSAVDPDTRHDRIPSLRWGRGFGLVEMVLGPDSSLNQPNSVFGLLFYSLQLLLGCSRAPWTSVVLALSSLLSLAGSLYLAWILFFVLHDFCFVCITTYAINVGLALLNYRRLKQAQGKVMKYCDESSPASSLLERRFYSGGGLRNGGSAASFPFPPATGH
- ability to promote carboxylation of the reporter protein compared to recombinant human VKOR (5 μM KO, 2 μM warfarin): inactive
- Relative activity: Human Y139F: No

B13: VKORC1L1: the VKOR paralogue, four TMDs (protein, UniProt Q8N0U8 1-176, looked up)
Vitamin K epoxide reductase …: MAAPVLLRVSVPRWERVARYAVCAAGILLSIYAYHVEREKERDPEHRALCDLGPWVKCSAALASRWGRGFGLLGSIFGKDGVLNQPNSVFGLIFYILQLLLGMTASAVAALILMTSSIMSVVGSLYLAYILYFVLKEFCIICIVTYVLNFLLLIINYKRLVYLNEAWKRQLQPKQD
- activity in cell-based in vivo activity assays: active in the vitamin K cycle

B14: Acropora: Acropora VKOR (translation of EZ012735, SEQ ID NO:9), Y136F warfarin resistant (protein, listed as Acropora millepora)
chain: MVSFLGISRLLVCLAGIALSIYALHVELSKAHDKDYKALCDINEHMSCSKVFTSKYGTGFGLVEPLLGKNHPFNVPNSIFGIIFYSLIIILGVVSGKFAALMMFLFSLASCVGSVYLGYILFYILHDTCVVCISTYVVNACLFVINMITLNDALSAPSPKKKKN
- ability to promote carboxylation of the reporter protein compared to recombinant human VKOR (5 μM KO, 2 μM warfarin): also promotes carboxylation of the reporter protein
- Relative activity: Human Y139F: Yes, greater

B15: MT-VKORH: Mycobacterium tuberculosis VKOR homologue, NP_217484, SEQ ID NO:18 (protein, listed as Mycobacterium tuberculosis)
chain: MVAARPAERSGDPAAVRVPVPSAWWVLIGGVIGLFASMTLTVEKVRILLDPIYVPSCNVNPIVSCGSVMTTPQASLLGFPNPLLGIAGFTVVVVTGVLAVAKVPLPRWYWIGLAVGILVGVAFVHWLIFQSLYRIGALCPYCMVVWAVIATLLVVVASIVFGPMRENRGSQERVGARLLYQWRWSLATLWFTTVFLLIMVRFWDYSTLI
- ability to promote carboxylation of the reporter protein compared to recombinant human VKOR (5 μM KO, 2 μM warfarin): greater activity
- support of carboxylation of the reporter protein with KO as substrate (5 μM KO, 4 μM warfarin, 48 h (FIG. 15B)): supported carboxylation of the reporter protein
- sensitivity to warfarin: naturally resistant to warfarin
- sensitivity to warfarin (listed as VKOR from Mycobacterium tuberculosis): resistant to warfarin at the doses employed
